Measurements from US20220002395A1 (FAPON BIOTECH, published 2022).

T1: Plasmodium falciparum histidine-rich protein II (HRP-II) (Plasmodium falciparum, UniProt P05227 22-332)
T1 construct: Coating antigen of all ELISAs; also called HRP-II protein; MA-HRPII Ag protein
T1 sequence (looked up): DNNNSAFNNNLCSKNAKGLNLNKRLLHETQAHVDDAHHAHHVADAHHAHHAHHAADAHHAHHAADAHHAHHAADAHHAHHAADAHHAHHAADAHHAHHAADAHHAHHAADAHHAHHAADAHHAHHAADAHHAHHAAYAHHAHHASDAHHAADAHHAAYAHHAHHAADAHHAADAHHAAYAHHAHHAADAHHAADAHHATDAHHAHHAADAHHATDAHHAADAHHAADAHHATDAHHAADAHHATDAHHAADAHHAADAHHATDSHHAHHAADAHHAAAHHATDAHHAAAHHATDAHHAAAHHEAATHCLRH

B1: Mutation 1-8 (antibody, mouse IgG2b, kappa, V domains shown)
VH: EVQLQQSGPEVVKPGASVKISCKASGYTITDYYMNWVKQSHGKGLEWIGDVNPIQGGTAYNQKFRDKATLTVDKSSNTAYMELRSLTSEDSALYYCTKGAEDYWGQGTTLTVSS
VL: DVVLTQTPLSLSVTIGQPASISCKSSQSLLYSQGKIYLNWFQQRPGQSPKRLMYQLSKLDPGIPDRFSGSGSETDFTLKISRVEAEDLGVYYCLQATYTPQTFGGGTKLEIKR
notes: Mutation 1 as framework
B2: Mutation 1-10 (antibody, mouse IgG2b, kappa, V domains shown)
VH: EVQLQQSGPEVVKPGASVKISCKASGYTITDYYMNWVKQSHGKGLEWIGDINPINGGTAYNQKFRDKATLTVDKSSNTAYMELRSLTSEDSALYYCTRGAEDYWGQGTTLTVSS
VL: DVVLTQTPLSLSVTIGQPASISCKSSQSLLYSNGKIYLNWFQQRPGQSPKRLMYQVSKLDPGIPDRFSGSGSETDFTLKISRVEAEDLGVYYCLQGTYYPQTFGGGTKLEIKR
notes: Mutation 1 as framework
B3: Mutation 1-15 (antibody, mouse IgG2b, kappa, V domains shown)
VH: EVQLQQSGPEVVKPGASVKISCKASGYTITDYYMNWVKQSHGKGLEWIGDLNPIQGGTAYNQKFRDKATLTVDKSSNTAYMELRSLTSEDSALYYCTRGAEDYWGQGTTLTVSS
VL: DVVLTQTPLSLSVTIGQPASISCKSSQSLIYSNGKIYLNWFQQRPGQSPKRLMYQLSKLEPGIPDRFSGSGSETDFTLKISRVEAEDLGVYYCLQGTYTPQTFGGGTKLEIKR
notes: Mutation 1 as framework
B4: Mutation 1-16 (antibody, mouse IgG2b, kappa, V domains shown)
VH: EVQLQQSGPEVVKPGASVKISCKASGYTITDYYMNWVKQSHGKGLEWIGDINPIQGGTAYNQKFRDKATLTVDKSSNTAYMELRSLTSEDSALYYCTRGAEDYWGQGTTLTVSS
VL: DVVLTQTPLSLSVTIGQPASISCKSSQSLLYSQGKIYLNWFQQRPGQSPKRLMYQVSKLDPGIPDRFSGSGSETDFTLKISRVEAEDLGVYYCLQGTYSPQTFGGGTKLEIKR
notes: Mutation 1 as framework
B5: Mutation 1-11 (antibody, mouse IgG2b, kappa, V domains shown)
VH: EVQLQQSGPEVVKPGASVKISCKASGYTITDYYMNWVKQSHGKGLEWIGDVNPINGGTAYNQKFRDKATLTVDKSSNTAYMELRSLTSEDSALYYCTKGAEDYWGQGTTLTVSS
VL: DVVLTQTPLSLSVTIGQPASISCKSSQSIIYSNGKIYLNWFQQRPGQSPKRLMYQVSKLEPGIPDRFSGSGSETDFTLKISRVEAEDLGVYYCLQATYTPQTFGGGTKLEIKR
notes: Mutation 1 as framework
B6: Mutation 1-21 (antibody, mouse IgG2b, kappa, V domains shown)
VH: EVQLQQSGPEVVKPGASVKISCKASGTTLTDYYMNWVKQSHGKGLEWIGDLNPIQGGTAYNQKFRDKATLTVDKSSNTAYMELRSLTSEDSALYYCTRGAEDYWGQGTTLTVSS
VL: DVVLTQTPLSLSVTIGQPASISCKSSQSLLYSQGKIYLNWFQQRPGQSPKRLMYQLSKLEPGIPDRFSGSGSETDFTLKISRVEAEDLGVYYCLQGTYTPQTFGGGTKLEIKR
notes: Mutation 1 as framework
B7: Mutation 1-20 (antibody, mouse IgG2b, kappa, V domains shown)
VH: EVQLQQSGPEVVKPGASVKISCKASGSTITDYYMNWVKQSHGKGLEWIGDVNPIQGGTAYNQKFRDKATLTVDKSSNTAYMELRSLTSEDSALYYCTKGAEDYWGQGTTLTVSS
VL: DVVLTQTPLSLSVTIGQPASISCKSSQSIIYSQGKIYLNWFQQRPGQSPKRLMYQLSKLDPGIPDRFSGSGSETDFTLKISRVEAEDLGVYYCLQGTYYPQTFGGGTKLEIKR
notes: Mutation 1 as framework
B8: Mutation 1-26 (antibody, mouse IgG2b, kappa, V domains shown)
VH: EVQLQQSGPEVVKPGASVKISCKASGTTLTDYYMNWVKQSHGKGLEWIGDVNPIQGGTAYNQKFRDKATLTVDKSSNTAYMELRSLTSEDSALYYCTRGAEDYWGQGTTLTVSS
VL: DVVLTQTPLSLSVTIGQPASISCKSSQSLLYSQGKIYLNWFQQRPGQSPKRLMYQLSKLDPGIPDRFSGSGSETDFTLKISRVEAEDLGVYYCLQGTYYPQTFGGGTKLEIKR
notes: Mutation 1 as framework
B9: Mutation 1-18 (antibody, mouse IgG2b, kappa, V domains shown)
VH: EVQLQQSGPEVVKPGASVKISCKASGYTLTDYYMNWVKQSHGKGLEWIGDLNPIQGGTAYNQKFRDKATLTVDKSSNTAYMELRSLTSEDSALYYCTKGAEDYWGQGTTLTVSS
VL: DVVLTQTPLSLSVTIGQPASISCKSSQSLLYSQGKIYLNWFQQRPGQSPKRLMYQISKLDPGIPDRFSGSGSETDFTLKISRVEAEDLGVYYCLQGTYTPQTFGGGTKLEIKR
notes: Mutation 1 as framework
B10: Mutation 1-23 (antibody, mouse IgG2b, kappa, V domains shown)
VH: EVQLQQSGPEVVKPGASVKISCKASGTTLTDYYMNWVKQSHGKGLEWIGDVNPIQGGTAYNQKFRDKATLTVDKSSNTAYMELRSLTSEDSALYYCTRGAEDYWGQGTTLTVSS
VL: DVVLTQTPLSLSVTIGQPASISCKSSQSIIYSNGKIYLNWFQQRPGQSPKRLMYQVSKLEPGIPDRFSGSGSETDFTLKISRVEAEDLGVYYCLQGTYYPQTFGGGTKLEIKR
notes: Mutation 1 as framework
B11: Mutation 1-14 (antibody, mouse IgG2b, kappa, V domains shown)
VH: EVQLQQSGPEVVKPGASVKISCKASGYTLTDYYMNWVKQSHGKGLEWIGDVNPINGGTAYNQKFRDKATLTVDKSSNTAYMELRSLTSEDSALYYCTKGAEDYWGQGTTLTVSS
VL: DVVLTQTPLSLSVTIGQPASISCKSSQSLIYSNGKIYLNWFQQRPGQSPKRLMYQLSKLDPGIPDRFSGSGSETDFTLKISRVEAEDLGVYYCLQATYTPQTFGGGTKLEIKR
notes: Mutation 1 as framework
B12: Mutation 1-25 (antibody, mouse IgG2b, kappa, V domains shown)
VH: EVQLQQSGPEVVKPGASVKISCKASGYTITDYYMNWVKQSHGKGLEWIGDINPIQGGTAYNQKFRDKATLTVDKSSNTAYMELRSLTSEDSALYYCTRGAEDYWGQGTTLTVSS
VL: DVVLTQTPLSLSVTIGQPASISCKSSQSLLYSQGKIYLNWFQQRPGQSPKRLMYQISKLEPGIPDRFSGSGSETDFTLKISRVEAEDLGVYYCLQGTYTPQTFGGGTKLEIKR
notes: Mutation 1 as framework
B13: Mutation 1-13 (antibody, mouse IgG2b, kappa, V domains shown)
VH: EVQLQQSGPEVVKPGASVKISCKASGSTLTDYYMNWVKQSHGKGLEWIGDINPIQGGTAYNQKFRDKATLTVDKSSNTAYMELRSLTSEDSALYYCTKGAEDYWGQGTTLTVSS
VL: DVVLTQTPLSLSVTIGQPASISCKSSQSILYSQGKIYLNWFQQRPGQSPKRLMYQISKLEPGIPDRFSGSGSETDFTLKISRVEAEDLGVYYCLQGTYYPQTFGGGTKLEIKR
notes: Mutation 1 as framework
B14: Mutation 1-22 (antibody, mouse IgG2b, kappa, V domains shown)
VH: EVQLQQSGPEVVKPGASVKISCKASGYTITDYYMNWVKQSHGKGLEWIGDINPIQGGTAYQQKFRDKATLTVDKSSNTAYMELRSLTSEDSALYYCTKGAEDYWGQGTTLTVSS
VL: DVVLTQTPLSLSVTIGQPASISCKSSQSIIYSNGKIYLNWFQQRPGQSPKRLMYQVSKLDPGIPDRFSGSGSETDFTLKISRVEAEDLGVYYCLQATYSPQTFGGGTKLEIKR
notes: Mutation 1 as framework
B15: Mutation 1-19 (antibody, mouse IgG2b, kappa, V domains shown)
VH: EVQLQQSGPEVVKPGASVKISCKASGTTLTDYYMNWVKQSHGKGLEWIGDINPIQGGTAYNQKFRDKATLTVDKSSNTAYMELRSLTSEDSALYYCTRGAEDYWGQGTTLTVSS
VL: DVVLTQTPLSLSVTIGQPASISCKSSQSIIYSQGKIYLNWFQQRPGQSPKRLMYQISKLEPGIPDRFSGSGSETDFTLKISRVEAEDLGVYYCLQATYSPQTFGGGTKLEIKR
notes: Mutation 1 as framework
B16: Mutation 1-17 (antibody, mouse IgG2b, kappa, V domains shown)
VH: EVQLQQSGPEVVKPGASVKISCKASGYTITDYYMNWVKQSHGKGLEWIGDVNPINGGTAYNQKFRDKATLTVDKSSNTAYMELRSLTSEDSALYYCTKGAEDYWGQGTTLTVSS
VL: DVVLTQTPLSLSVTIGQPASISCKSSQSLLYSQGKIYLNWFQQRPGQSPKRLMYQVSKLEPGIPDRFSGSGSETDFTLKISRVEAEDLGVYYCLQGTYYPQTFGGGTKLEIKR
notes: Mutation 1 as framework

The binders below were run against T1, Plasmodium falciparum histidine-rich … (assay: indirect ELISA, four antigen coating concentrations;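 also: optical density read across an antibody dilution series at each antigen coating level, curves plotted on log scale, KD derived as reciprocal of the averaged constant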).
Method: The OD values corresponding to different antibody concentrations with different coating concentrations are obtained. Under the same coating concentration, the antibody concentrations are used as an abscissa, the 00 values are used as an ordinate, and a logarithmic plot is made. […] An average value thereof is taken and a reciprocal thereof is calculated to get the affinity constant KD.

**Q.** How did the Kd turn out when B1 was run?
**A.** The Kd was 0.198 nM.

**Q.** For B2, which Kd is on record?
**A.** The Kd was 0.827 nM.

**Q.** With B3 as the binder, how does the Kd read?
**A.** Its Kd is 0.245 nM.

**Q.** With B4 as the binder, how does the Kd read?
**A.** Its Kd is 0.502 nM.

**Q.** For B5, which Kd is on record?
**A.** The Kd was 0.0213 nM.

**Q.** Which Kd does the source give for B6 here?
**A.** The Kd was 0.0828 nM.

**Q.** How did the Kd turn out when B7 was run?
**A.** Its Kd is 0.251 nM.

**Q.** How did the Kd turn out when B8 was run?
**A.** Its Kd is 0.211 nM.

**Q.** How did the Kd turn out when B9 was run?
**A.** The Kd was 0.051 nM.

**Q.** Which Kd does the source give for B10 here?
**A.** Its Kd is 0.364 nM.

**Q.** Which Kd does the source give for B11 here?
**A.** The Kd was 0.226 nM.

**Q.** For B12, which Kd is on record?
**A.** Its Kd is 0.444 nM.

**Q.** For B13, which Kd is on record?
**A.** Its Kd is 0.0865 nM.

**Q.** B14 was tested. Which Kd did it give?
**A.** Its Kd is 0.0814 nM.

**Q.** How did the Kd turn out when B15 was run?
**A.** Its Kd is 0.0835 nM.

**Q.** How did the Kd turn out when B16 was run?
**A.** The Kd was 0.0824 nM.
